Data as given in patent publication US20240271115A1.

Target: Human IgG in human serum

B1: Recombinant IdeS expressed from codon-optimized cDNA IdeS^op2 (pGEX-IdeS^op2), designated Ab-C (protein)
chain: RKRCYSTSAVVLAAVTLFALSVDRGVIADSFSANQEIRYSEVTPYHVTSVWTKGVTPPAKFTQGEDVFHAPYVANQGWYDITKTFNGKDDLLCGAATAGNMLHWWFDQNKEKIEAYLKKHPDKQKIMFGDQELLDVRKVINTKGDQTNSELFNYFRDKAFPGLSARRIGVMPDLVLDMFINGYYLNVYKTQTTDVNRTYQEKDRRGGIFDAVFTRGDQSKLLTSRHDFKEKNLKEISDLIKKELTEGKALGLSHTYANVRINHVINLWGADFDSNGNLKAIYVTDSDSNASIGMKKYFVGVNSAGKVAISAKEIKEDNIGAQVLGLFTLSTGQDSWNQTN
- IgG cleavage, PAGE-Coomassie stain, purified normalized IdeS samples incubated with human serum for 1 h: The results showed more effective IgG cleavage by IdeS^op2
